B1: Protein PTHB1 (Homo sapiens), Q3SYG4 (parent)
chain: MSLFKARDWWSTILGDKEEFDQGCLCLANVDNSGNGQDKIIVGSFMGYLRIFSPHPAKTGDGAQAEDLLLEVDLRDPVLQVEVGKFVSGTEMLHLAVLHSRKLCVYSVSGTLGNVEHGNQCQMKLMYEHNLQRTACNMTYGSFGGVKGRDLICIQSMDGMLMVFEQESYAFGRFLPGFLLPGPLAYSSRTDSFLTVSSCQQVESYKYQVLAFATDADKRQETEQQKLGSGKRLVVDWTLNIGEQALDICIVSFNQSASSVFVLGERNFFCLKDNGQIRFMKKLDWSPSCFLPYCSVSEGTINTLIGNHNNMLHIYQDVTLKWATQLPHIPVAVRVGCLHDLKGVIVTLSDDGHLQCSYLGTDPSLFQAPNVQSRELNYDELDVEMKELQKIIKDVNKSQGVWPMTEREDDLNVSVVVSPNFDSVSQATDVEVGTDLVPSVTVKVTLQNRVILQKAKLSVYVQPPLELTCDQFTFEFMTPDLTRTVSFSVYLKRSYTPSELEGNAVVSYSRPTDRNPDGIPRVIQCKFRLPLKLICLPGQPSKTASHKITIDTNKSPVSLLSLFPGFASQSDDDQVNVMGFHFLGGARITVLASKTSQRYRIQSEQFEDLWLITNELILRLQEYFEKQGVKDFACSFSGSIPLQEYFELIDHHFELRINGEKLEELLSERAVQFRAIQRRLLARFKDKTPAPLQHLDTLLDGTYKQVIALADAVEENQGNLFQSFTRLKSATHLVILLIALWQKLSADQVAILEAAFLPLQEDTQELGWEETVDAAISHLLKTCLSKSSKEQALNLNSQLNIPKDTSQLKKHITLLCDRLSKGGRLCLSTDAAAPQTMVMPGGCTTIPESDLEERSVEQDSTELFTNHRHLTAETPRPEVSPLQGVSE
partner: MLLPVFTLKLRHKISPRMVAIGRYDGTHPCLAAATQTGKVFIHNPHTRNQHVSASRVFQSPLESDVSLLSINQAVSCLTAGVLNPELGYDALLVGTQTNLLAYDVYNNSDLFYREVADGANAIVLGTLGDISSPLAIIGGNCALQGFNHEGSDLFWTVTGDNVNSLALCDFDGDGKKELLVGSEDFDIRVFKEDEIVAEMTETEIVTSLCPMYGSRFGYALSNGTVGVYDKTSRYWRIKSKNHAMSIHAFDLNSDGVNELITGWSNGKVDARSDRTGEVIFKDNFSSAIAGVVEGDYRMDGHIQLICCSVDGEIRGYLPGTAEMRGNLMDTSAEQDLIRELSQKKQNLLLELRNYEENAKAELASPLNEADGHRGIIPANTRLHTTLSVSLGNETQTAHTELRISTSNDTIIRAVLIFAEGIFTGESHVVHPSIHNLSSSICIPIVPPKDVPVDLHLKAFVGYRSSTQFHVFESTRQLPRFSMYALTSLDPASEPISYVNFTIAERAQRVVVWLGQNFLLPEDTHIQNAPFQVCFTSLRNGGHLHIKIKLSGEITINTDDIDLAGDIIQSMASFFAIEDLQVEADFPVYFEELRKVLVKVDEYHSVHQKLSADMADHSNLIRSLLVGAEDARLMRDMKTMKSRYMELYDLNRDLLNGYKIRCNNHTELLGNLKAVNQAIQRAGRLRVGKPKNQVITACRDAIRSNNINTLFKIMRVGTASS

Variants of: B1
Settings: with bbs2_human BBS2, Q9BXC9

| Variant | effect of a mutation on the interaction |
| --- | --- |
| D470N | disrupting interaction strength |
| K554E | with no effect |
| T836A | with no effect |
| I812K | with no effect |
| N515A | with no effect |
| M477E | with no effect |
| M477K | with no effect |
| S418A | with no effect |
| G822K | with no effect |
| L611K | with no effect |
| N420A | with no effect |
| D747A | with no effect |
| V772E | with no effect |
| T871K | with no effect |
| E408A | with no effect |
| L736E | with no effect |
| I776K | with no effect |
| P516K | with no effect |
| P511A | with no effect |
| D817K | with no effect |
| C525E | with no effect |
| N553A | with no effect |
| F646E | with no effect |

| Variant | effect of a mutation on the interaction |
| --- | --- |
| G659E | with no effect |
| Q742E | with no effect |
| L779A | with no effect |
| C783E | with no effect |
| I588E | with no effect |
| V442K | with no effect |
| Q705M | disrupting interaction strength |
| R514K | with no effect |
| L411E | with no effect |
| S555E | with no effect |
| Q621K | with no effect |
| V450A | with no effect |
| G585A | with no effect |
| F487A | with no effect |
| A427E | with no effect |
| V459K | with no effect |
| S561K | with no effect |
| S498A | with no effect |
| S498L | disrupting interaction strength |
| E604K | with no effect |
| E761A | with no effect |
| D409E | with no effect |
| I519A | with no effect |

| Variant | effect of a mutation on the interaction |
| --- | --- |
| E887K | with no effect |
| P530A | with no effect |
| F632E | with no effect |
| T782K | with no effect |
| S570A | with no effect |
| Y623K | with no effect |
| V416E | with no effect |
| D696A | with no effect |
| T428E | with no effect |
| F421K | with no effect |
| R483K | with no effect |
| P438E | with no effect |
| S639K | with no effect |
| K532A | with no effect |
| S787E | with no effect |
| N658K | with no effect |
| G823A | with no effect |
| R679G | disrupting interaction strength |
| Q426E | with no effect |
| F474E | with no effect |
| Q677Y | disrupting interaction strength |
| L827E | with no effect |
| D850A | with no effect |

| Variant | effect of a mutation on the interaction |
| --- | --- |
| N576K | with no effect |
| K626A | with no effect |
| Q791K | with no effect |
| L500A | with no effect |
| E770A | with no effect |
| E770K | with no effect |
| E501K | with no effect |
| E501A | with no effect |
| T478A | with no effect |
| T478I | disrupting interaction strength |
| F653K | with no effect |
| Q524K | with no effect |
| L681A | with no effect |
| S635A | with no effect |
| P520A | with no effect |
| P520K | with no effect |
| P497A | with no effect |
| S568A | with no effect |
| R407E | with no effect |
| L618K | with no effect |
| A675K | with no effect |
| E663A | with no effect |
